Source: article PMC5003816

Molecular target: ubiquitin conjugates (MEFs)
Test: UBQLN2 IP and western blot quantification (primary MEFs)
Conditions: n = 3; read off a plot

ratio to parent: 1.4
Substance: UBQLN2 (mouse, endogenous, wild type) (from UniProt Q9QZM0) mP520T
